Test results: patent US20200324099A1, “ACOUSTIC WAVE MEDIATED NON-INVASIVE DRUG DELIVERY” (Mupharma Pty Ltd, priority 2016, published 2020)
Counter-ions that a name gives are not always drawn. Like-named read-outs stand apart in the source and are kept apart here. One block for each compound: values may come before it.

Key:
[1] = rat, in vivo
Experimental: All experiments were conducted in accordance with the ARVO Statement for Use of Animals in Ophthalmic and Vision Research and with approval from the ANU Animal Experimentation Ethics Committee (Ethics ID: A2014/56). Adult Wistar rats were utilised in all experiments, which were born and reared under normal lighting conditions (˜5 lux light) and aged between 90 and 120 post-natal days at the time of use. Wistar rats were anaesthetised with an intraperitoneal injection of ketamine (100 mg/kg; Troy Laboratories, NSW, Australia) and Xylazil (12 mg/kg; Troy Laboratories). Once anaesthetised, Systane eye drops (Alcon, TX, USA) were applied every 2 minutes to maintain corneal lubrication. Animals were placed on a heat blanket to maintain body temperature at 37° C. and a cotton eye loop was applied around the eye to expose the anterior surface.
The inventors' HFB device (with A.A Lab Systems A-301 HS HV amplifier and RIGOL DG4062 Function/Arbitrary Waveform Generator) was loaded with 0.2% Riboflavin-5-phosphate-sodium (Riboflavin-5-phosphate-sodium-5-phosphate sodium #30-1598-25GM; PCCA, TX, USA), made up in sterile saline (0.9% NaCl), and applied to the centre of the cornea for 5 minutes. The settings on the device were as follows: transducer—1.6 MHz; amplifier—DC offset=off position; waveform generator—60 KHz sine waveform. The device was run for 5 minutes at 0, 3, 11 or 13 voltage peak to peak (VPP). […] Therefore, an electric circuit between the device and the eye tissue was not created.
Following delivery, the residual Riboflavin-5-phosphate-sodium was washed from the eye with normal saline. The animal was euthanized, the eyes removed and the eyes fixed in 4% paraformaldehyde for 5 minutes before being cryopreserved and immediately sectioned at 16 μm thickness.
Sections were visualised under a Nikon A1 confocal microscope using the green 488 channel and imaged using the 10× objective. Data analysis for quantification was performed with an n=3 with 8 regions per section, with the gain of the laser set to optimal fluorescence for the brightest section (gain setting 110) and maintained for all imaging.

[2] = SAW (30 MHz) perfusion of FITC-Albumin and Fluorescein in pig lip tissue (Example Three); assay type: in vitro ADME; conditions: for perfusion into pig lip tissue with SAW: SAW 30 MHz, different exposure times and powers; for passive diffusion into pig lip tissue (control sample): no SAW
Description: In this set of experiments, the effect of surface acoustic wave (SAW) at 30 MHz on FITC-Albumin and Fluorescein perfusion for different SAW powers and operating time was investigated.
Fluorescein sodium salt and FITC-Albumin were purchased from Sigma-Aldrich, Australia. Fresh porcine lips were obtained from diamond valley pork abattoir (Laverton, Melbourne) prior to the experiments. Surface acoustic wave (SAW) chip patterning of Chromium and Aluminum interdigital transducers (IDT) were fabricated using standard lithographic techniques at Micro Nano Research Facility (MNRF), RMIT University.
The lips were wrapped in sterile gauze saturated in Krebs buffer during transportation to maintain the viability of the tissues. […] The porcine lips were exposed to various molecules with and without the surface acoustic waves (SAW). The lips were washed immediately after the experiments to get rid of any reminent targeting molecules.
Samples were wrapped in aluminium foil and stored at −80 degree until dermatomed. The tissues were dermatomed in a cryostat at a thickness of 50-micron layer until 1 mm for extensive penetration studies.
Tissue sectioning was performed at RMIT Bundoora and Melbourne University campuses. Fluorescent images of the samples were obtained using optical microscope (×10 lens), consistent light exposure of 600 ms. Acquired images were then quantified using ImageJ software to calculate the normalized pixel intensity of the green channel.
The model drug (FITC-albumin and fluorescein) used was placed directly on the device throughout the experiments. Fresh lips were approximately dissected into a 1 cm*1 cm cube and was placed on the drug. No coupling agent or loading substrate was used to transmit the vibrations from device into tissues. The inter-digital electrodes (IDTs) patterned on the lithium niobate (piezoelectric substrate) generated surface waves (SAW), which in turn drives the model drugs into the tissues. (FIG. 12)

[3] = for SAW samples pixel intensity: SAW approximately 4V; for SAW samples pixel intensity / Control samples pixel intensity: 5 s exposure, 30 μg/ml; for Control samples pixel intensity: no acoustic waves (0 mV)
Experimental: The SAW device 10 illustrated in FIG. 1 was used to controllably deliver albumin-fluorescein isothiocyanate (FITC-albumin) across epithelial membranes of pig lips. Fresh lips tissues from pigs were obtained from a slaughterhouse. The experiments were conducted within 2 hours after the animals were sacrificed. The porcine lips were exposed to FITC-albumin molecules with and without the acoustic waves. The exposure time was 5 s for both control and SAW experiments. The power or voltage was maintained at 0 mV (no voltage) for control, and approximately 4V for SAW experiments. The concentration and the amount of FITC-Albumin (30 μg/ml) used was maintained constant throughout the penetration depth study.
The fresh tissues were further snap frozen in isopentane chilled by liquid nitrogen with the aid of optimal cutting temperature compound (OCT) as the embedding medium. Samples were further wrapped in aluminium foil and stored at −80° C. until sectioned by a dermatome. The tissues were sectioned by a dermatome in a cryostat to create samples of contiguous layers of tissue of 50 μm thickness.
Fluorescent images of the samples were obtained and quantified using Image J software to calculate the normalised pixel intensity of the green channel.

- concentrations in posterior iris, ciliary body and choroid [1]: significant concentrations
- delivery to the posterior segment of the eye [1]: concentrated in the uveal tract
- fluorescence in anterior chamber and vitreous [1]: did not show any fluorescence
- increase in average relative fluorescence intensity (RFI), treated versus control cornea [1]: ~4 times
Compound: Cc1cc2nc3c(=O)[nH]c(=O)nc-3n(C[C@H](O)[C@H](O)[C@H](O)COP(=O)([O-])O)c2cc1C.[Na+] [Riboflavin-5-phosphate-sodium]

- passive diffusion into pig lip tissue (control sample) [2]: prevalent
Compound: O=C1OC2(c3ccc(O)cc3Oc3cc(O)ccc32)c2ccccc21 [Fluorescein, Fluorescein sodium salt]
- perfusion into pig lip tissue with SAW [2]: showed an improvement, especially for longer exposure time

Compound: albumin-fluorescein isothiocyanate [FITC-albumin]
- depth of delivery across the epithelial layers of the pig lips ([3]; SAW device, 5 s, tissue deeper than 500 μm not examined): 500 μm
- diffusion through the layers of the pig lips ([3]; control, no acoustic waves, 5 s): diffused evenly and uniformly through the layers of the pig lips
- SAW samples pixel intensity ([3]; layer 100 μm): 37.192
- Control samples pixel intensity ([3]; layer 100 μm): 7.52
- SAW samples pixel intensity ([3]; layer 150 μm): 19.733
- Control samples pixel intensity ([3]; layer 150 μm): 7.421
- SAW samples pixel intensity ([3]; layer 200 μm): 19.835
- Control samples pixel intensity ([3]; layer 200 μm): 6.617
- SAW samples pixel intensity ([3]; layer 250 μm): 14.041
- Control samples pixel intensity ([3]; layer 250 μm): 6.126
- SAW samples pixel intensity ([3]; layer 300 μm): 11.229
- Control samples pixel intensity ([3]; layer 300 μm): 7.488
- SAW samples pixel intensity ([3]; layer 350 μm): 16.047
- Control samples pixel intensity ([3]; layer 350 μm): 7.405
- SAW samples pixel intensity ([3]; layer 400 μm): 12.274
- Control samples pixel intensity ([3]; layer 400 μm): 7.589
- SAW samples pixel intensity ([3]; layer 450 μm): 9.935
- Control samples pixel intensity ([3]; layer 450 μm): 6.886
- SAW samples pixel intensity ([3]; layer 500 μm): 9.958
- Control samples pixel intensity ([3]; layer 500 μm): 7.715
- perfusion into pig lip tissue with SAW [2]: outstanding perfusion compared to passive diffusion
- passive diffusion into pig lip tissue (control sample) [2]: hardly any diffusion
